Here are results for 6 molecules from patent US20160362495A1 (E R SQUIBB AND SONS L L C, published 2016).

Experiment [1] deals with T1, recombinant human PD-L1 fusion protein (human PD-L1 fused to an immunoglobulin Fc region) (human, UniProt Q9NZQ7 19-238).
T1 construct: extracellular domain; also called PD-L1-Fc fusion protein; PD-L1-Ig; not shown: immunoglobulin Fc region
The experiment in a line: SPR (Biacore), PD-L1 fusion protein amine-coupled to CM5 chip, antibody flowed at 133 nM, 1:1 Langmuir fit. On the procedure: Anti-PD-L1 antibodies were characterized for affinities and binding kinetics by Biacore analysis (Biacore AB, Uppsala, Sweden). […] The antigen-antibody association kinetics was followed for 1 minute and the dissociation kinetics was followed for 1 minute. The association and dissociation curves were fit to a 1:1 Langmuir binding model using BIAevaluation software (Biacore AB). To minimize the effects of avidity in the estimation of the binding constants, only the initial segment of data corresponding to association and dissociation phases were used for fitting.
(In general: Surface plasmon resonance follows binding to a sensor surface in real time, without labels.)

Experiment [2] addresses T2, human PD-L1 expressed at the cell surface (human, UniProt Q9NZQ7 19-290).
T2 construct: whole, on cells; also called cell surface PD-L1; hPD-L1
As to the kind of experiment: flow cytometry titration on stimulated human CD4+ T cells, FITC anti-human kappa detection, FL1 GMFI. On the procedure: (§1) Anti-PD-L1 antibodies were tested by flow cytometry for binding to activated human or cynomolgus monkey T cells expressing PD-L1 on their surface.
(§2) Human or monkey T cells were activated by anti-CD3 antibody to induce PD-L1 expression prior to binding with a human anti-PD-L1 monoclonal antibody. […] An isotype control antibody was used as a negative control. The cells were washed and binding was detected with a FITC-labeled antihuman Ig-kappa light chain Ab. Flow cytometric analyses were performed using a FACScalibur flow cytometer (Becton Dickinson, San Jose, Calif.).
A general note: Flow cytometry measures light scatter and fluorescence of single cells or particles in a stream.

The target in experiment [3] is T1, recombinant human PD-L1 fusion protein …. As to the kind of experiment: ELISA on hPD-L1/Fc, HRP goat anti-human IgG (kappa chain-specific) detection. Here is the method:
Standard ELISA procedures were performed. The anti-PD-L1 human monoclonal antibodies were added at different concentrations. Goat-anti-human IgG (kappa chain-specific) polyclonal antibody conjugated with horseradish peroxidase (HRP) was used as secondary antibody.
For orientation: ELISA stands for enzyme-linked immunosorbent assay.

Experiment [4] concerns the target T2, human PD-L1 expressed at the cell …. As to the kind of experiment: flow cytometry titration on CHO cells transfected with human PD-L1, FITC-labeled anti-human IgG detection. From the text: Chinese hamster ovary (CHO) cell lines that express recombinant human PD-L1 at the cell surface were developed and used to determine the specificity of PD-L1 human monoclonal antibodies by flow cytometry. CHO cells were transfected with expression plasmids containing full length cDNA encoding transmembrane forms of PD-L1. […] The cells were washed and binding was detected with a FITC-labeled anti-human IgG Ab. Flow cytometric analyses were preformed using a FACScan flow cytometry (Becton Dickinson, San Jose, Calif.). The binding was compared to the parent CHO cell line. […] Binding was also tested using varying concentrations of anti-PD-L1 antibody.

The target of experiment [5] is T3, cynomolgus monkey PD-L1 expressed on the surface of activated T cells (cynomolgus monkey, UniProt G7PSE7 19-290).
T3 construct: also called cynomolgus monkey cell surface PD-L1; stimulated cynomolgus PBMC
T3 sequence (G7PSE7 entry or part of it limits assumed): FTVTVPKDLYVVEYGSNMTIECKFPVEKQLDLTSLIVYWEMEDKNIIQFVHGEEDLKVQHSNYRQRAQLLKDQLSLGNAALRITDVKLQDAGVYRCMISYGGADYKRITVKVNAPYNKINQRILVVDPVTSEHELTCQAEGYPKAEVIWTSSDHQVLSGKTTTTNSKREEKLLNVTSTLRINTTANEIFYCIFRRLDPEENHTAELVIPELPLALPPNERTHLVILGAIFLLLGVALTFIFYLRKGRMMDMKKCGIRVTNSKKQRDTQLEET
The experiment in a line: flow cytometry titration on activated cynomolgus PBMC, FITC anti-human kappa detection, FL1 GMFI. On the procedure:
as §1, §2

The target of experiment [6] is T2, human PD-L1 expressed at the cell …. The experiment in a line: flow cytometry blocking assay: antibody titrated on IFN-gamma-treated ES-2 cells, then PD-1-hFc at 2 ug/mL, detected with biotinylated 26D5 and streptavidin-PE (FL2 GMFI). On the procedure:
The blocking was compared to isotype control antibody.
ES-2 cells were induced overnight with 500 IU/mL of hIFN-γ to upregulate hPD-L1 cell surface expression. Induced cells were suspended in FACS buffer. […] Finally, bound 26D5 antibody was detected by addition of streptavidin-PE conjugate at 4° C. for 30 minutes, followed by two washes to remove unbound conjugate. Flow cytometric analysis was performed using a FACScalibur flow cytometer (Becton Dickinson, San lose, Calif.). The results are depicted in FIG. 46.

Experiment [7] has the same target. The experiment in a line: flow cytometry titration on IFN-gamma-treated ES-2 cells, anti-human kappa detection (sheet title), FL1 GMFI.
Experiment [8] addresses T1, recombinant human PD-L1 fusion protein …. As to the kind of experiment: Biacore equilibrium binding, 37 C.
Experiment [9] shares this target. The experiment in a line: Biacore equilibrium binding, 25 C.
The target is the same in experiment [10]. As to the kind of experiment: flow cytometry blocking assay: antibody titrated against FITC-labeled PD-L1-Fc binding to CHO cells expressing human PD-1. On the procedure: Anti-PD-L1 human monoclonal antibodies were tested for the ability to block binding of the ligand PD-L1 to PD-1 expressed on transfected CHO cells by using a cell cytometry assay.
PD-1 expressing CHO cells were suspended in FACS buffer (PBS with 4% fetal calf serum). […] Flow cytometric analyses were performed using a FACScalibur flow cytometer (Becton Dickinson, San Jose, Calif.).

T1 sequence (Q9NZQ7 19-238): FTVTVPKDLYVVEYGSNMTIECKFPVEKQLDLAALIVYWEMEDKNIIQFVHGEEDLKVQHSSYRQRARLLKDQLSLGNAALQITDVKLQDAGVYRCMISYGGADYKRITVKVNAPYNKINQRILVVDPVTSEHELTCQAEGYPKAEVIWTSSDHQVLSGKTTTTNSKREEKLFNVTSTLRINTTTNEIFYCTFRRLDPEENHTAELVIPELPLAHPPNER
T2 sequence (Q9NZQ7 19-290): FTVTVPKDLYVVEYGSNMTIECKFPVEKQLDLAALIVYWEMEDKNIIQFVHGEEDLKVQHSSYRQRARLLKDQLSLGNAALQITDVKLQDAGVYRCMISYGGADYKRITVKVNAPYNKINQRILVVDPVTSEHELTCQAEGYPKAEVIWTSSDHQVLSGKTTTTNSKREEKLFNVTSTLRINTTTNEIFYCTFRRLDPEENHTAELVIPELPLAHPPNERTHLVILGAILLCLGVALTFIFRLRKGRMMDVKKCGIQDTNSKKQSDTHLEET

B1: 3G10 human monoclonal antibody (antibody, V domains shown)
VH: QVQLVQSGAEVKKPGASVKVSCKASGYTFTDYGFSWVRQAPGQGLEWMGWITAYNGNTNYAQKLQGRVTMTTDTSTSTVYMELRSLRSDDTAVYYCARDYFYGMDVWGQGTTVTVSS
VL: EIVLTQSPATLSLSPGERATLSCRASQSVSSYLVWYQQKPGQAPRLLIYDASNRATGIPARFSGSGSGTDFTLTISSLEPEDFAVYYCQQRSNWPRTFGQGTKVEIK
notes: Fully human IgG kappa antibody from a KM-mouse hybridoma; also called HuMAb 3G10
A word on the Kd: it is the constant that tells how readily two partners part at equilibrium. Usually EC50 stands for the concentration that produces a half-maximal response. The term EC50 (read off the curve) denotes the midpoint of the concentration-response curve. In general, IC50 refers to the midpoint of a concentration-inhibition curve. For B1, in experiment [1], the Kd was determined as 3390 pM. Also, the EC50 in experiment [2] was 230 pM; in experiment [5] it was 380 pM; in experiment [7], 420 pM. Moreover, the “EC50 (read off the curve)” value in experiment [3] is approximately 0.1 µg/mL; in [4] it was approximately 0.3 µg/mL. The molecule further showed an IC50 in experiment [6] of 470 pM.

B2: 1B12 human monoclonal antibody (antibody, V domains shown)
VH: QVQLVQSGAEVKKPGSSVKVSCKTSGDTFSSYAISWVRQAPGQGLEWMGGIIPIFGRAHYAQKFQGRVTITADESTSTAYMELSSLRSEDTAVYFCARKFHFVSGSPFGMDVWGQGTTVTVSS
VL: not shown
notes: Fully human IgG kappa antibody from a KM-mouse hybridoma
As for B2, in experiment [8], the Kd stood at 1380 pM. The EC50 in experiment [2] came out at 60 pM; in experiment [5], 150 pM; in experiment [7], 230 pM. It took 210 pM to reach half-maximal inhibition in [6] (IC50).

B3: 12A4 human monoclonal antibody (antibody, V domains shown)
VH: QVQLVQSGAEVKKPGSSVKVSCKTSGDTFSTYAISWVRQAPGQGLEWMGGIIPIFGKAHYAQKFQGRVTITADESTSTAYMELSSLRSEDTAVYFCARKFHFVSGSPFGMDVWGQGTTVTVSS
VL: not shown
notes: Fully human IgG kappa antibody from a KM-mouse hybridoma; also called HuMAb 12A4
B3 gave an EC50 in experiment [5] of 100 pM.

B4: 7H1 human monoclonal antibody (antibody, V domains shown)
VH: QVQLVQSGAEVKKPGSSVKVSCKTSGGTFSSYAISWVRQAPGQGLEWMGGIIPIFGKAHYAQKFQGRVTITADESTTTAYMELSSLRSEDTAVYYCARKYDYVSGSPFGMDVWGQGTTVTVSS
VL: not shown
notes: as for B2
For the molecule B4, the Kd in [8] is 2150 pM.

B5: 10A5 human monoclonal antibody (antibody, V domains shown)
VH: QVQLVQSGAEVKKPGASVKVSCKASGYTFTSYDVHWVRQAPGQRLEWMGWLHADTGITKFSQKFQGRVTITRDTSASTAYMELSSLRSEDTAVYYCARERIQLWFDYWGQGTLVTVSS
VL: DIQMTQSPSSLSASVGDRVTITCRASQGISSWLAWYQQKPEKAPKSLIYAASSLQSGVPSRFSGSGSGTDFTLTISSLQPEDFATYYCQQYNSYPYTFGQGTKLEIK
notes: Fully human IgG kappa antibody from a KM-mouse hybridoma; also called HuMAb 10A5
What is called koff is a measure of how fast the partners let go of each other. For orientation: kon means a measure of how fast the partners come together. For the molecule B5, the Kd worked out at 2410 pM in experiment [8], 1450 pM in [1] and 570 pM in experiment [9]. Moreover, the koff in experiment [1] was 0.000372 s⁻¹. In addition, the kon in [1] came to 258000 M⁻¹ s⁻¹. In addition, the results for the “EC50 (read off the curve)” value in experiment [3] and in experiment [4] were approximately 0.08 µg/mL and approximately 0.3 µg/mL, respectively. The molecule further returned an IC50 in experiment [6] of 290 pM. The molecule also registered an EC50 in [7] of 380 pM. Moreover, the “IC50 (read off the curve)” value in experiment [10] is approximately 3 µg/mL.

B6: 10H10 human monoclonal antibody (antibody, V domains shown)
VH: EVQLVESGGGLVQPGRSLRLSCAVSGFTFDDYVVHWVRQAPGKGLEWVSGISGNSGNIGYADSVKGRFTISRDNAKNSLYLQMNSLRAEDTALYYCAVPFDYWGQGTLVTVSS
VL: DIQMTQSPSSLSASVGDRVTITCRASQGISSWLAWYQQKPEKAPKSLIYAASSLQSGVPSRFSGSGSGTDFTLTISSLQPEDFATYYCQQYNSYPYTFGQGTKLEIK
notes: as for B2
For B6, the Kd amounted to 5930 pM in [8] and 5480 pM in experiment [9].
